# The DeepSol protein solubility set
# Experiment: soluble on expression in E. coli; label from the status in PepcDB or PDB records
row,Sequence,soluble on expression in E. coli
1,MSLNLTIGTSKFNPPFEVWSGNNSSLYGFDIDLMQEICRRLHATCTFEAYIFDDLFPALKNREVDLVIASMIITDERKKHFIFSLPYMESNSQYITTVDSKISTFDDLHGKKIGVRKGTPYARQVLSENRNNQVIFYELIQDMLLGLSNNQVDASLMDYEAAKYWMASEPYAYKLIGKKYKLIGKKISIGEGYSIMANPDQFVLIKKINKILLEMEADGTYLRLYSEYFEGHHHHHH,soluble
2,MGSDKIHHHHHHMPLLLKGSCRCNAVRFEVESHTPVPFMLCYCSICRKQQGGGGFAINLGAAYETLNIRGKRSLGVYRAEIEDDEHPHCEVSTGERNFCRKCGSALWLYDPTWPELVHPFASAIDSDLPKPPSRVHLMLKYKANWVEPVIGKGDKTFDVYPEESIADWHKLTGMWVD,not soluble
3,MGSDKIHHHHHHVRFCCHHDWLYGVLHLPQQPVTRGVLIVVGGPQYRVGSHRQFVLLARYLAERGIAVMRFDFRGMGDSDGEIRTFEHVGEDLRSAADFFFSECPFLEDIVIWGLCDAASAALFHAHQDSRVSGLVLLNPWVRTEQGIAKAYLKHYYLERLFDPEFWKKLLGGKFNPLASIRSLYEFGRNSLRGGKSPAVSEKSAGSACDLTVPLPERMLDGLKRFQGKILIITSGNDLTAREFLDLVDSSADWQATLRTKQTELCHMESANHTFSTREWRDQVTELTANRVLSW,not soluble
4,MGSDKIHHHHHHMELNIPLVLQNKTPIYLQIYEYMKREISHGSLCAGTRLPSHRNLAMQLNVSRITVESAYQQLLAEGYVESKPKRGIFVAEVDIDVIQKKQQIVSNSANNKEKEQYDYDCSQGLIDQKAFPITNWKRALHETLFQYENELFAKEDPQGELVLREHISKYLYHARGVHSSPDQIIIGAGTQPLLWLLLQLLGSKKEYGIENPGFHRIPAMIQSSGLPVHPIPLDDKGIHISALRESGSNVAYVTPSHQFPLGIIMPLSRRLELLKWANDCKGYIVEDDYDGEFRYIGKPIPSLQGLDSNERVIYMGTFSKSFLPSLRMGYIVLPPHLLKTYKELGGMYKQTVSTMQQLTFATFIQSGDWERHINRSRTLYKRKHISLIKSITNEMGNNVHILGEQSGLHIVLHVHNGMNEQELIHAAAKQRIKLYPLSTYDSVHNVREESYVLLGFGSIPENRIETVVQLLKKAWFPK,not soluble
5,MPRKRSVALAAWGEEGLLLVLRPQDDPEFPGAWGLPAVSLQGEETLEEAALRVAREKLGAEVAEAGPIAFGVEERPGYTLELWVYEGRLLGRPRLPEPKPGKTYYAAFRFGRPEELKAAARQGSLCSRLFLAVKGLCP,soluble
6,GKKAVINDSNTPLHLLQPAYQGTYGDLTPEQVKKDIDRVFAYIDKETPARVVDKNTGKVITDYTAMGDEAQLERGAFRLASYEWGVTYSALIAAAETTGDKRYTDYVQNRFRFLAEVAPHFKRVYEEKGKTDSQLLQILTPHALDDAGAVCTAMIKLRLKDESLPVDGLIQNYFDFIINKEYRLADGTFARNRPQRNTLWLDDMFMGIPAVAQMSRYDKEAKNKYLAEAVKQFLQFADRMFIPEKGLYRHGWVESSTDHPAFCWARANGWALLTACELLDVLPEDYPQRPKVMDYFRAHVRGVTALQSGEGFWHQLLDCNDSYLETSATAIYVYCLAHAINKGWIDAIAYGPVAQLGWHAVAGKINEEGQVEGTCVGTGMAFDPAFYYYRPVNVYAAHGYGPVLWAGAEMIRLLNTQHPQMNDSAVQYYQEKQKTTAPIFAVDSE,soluble
7,MGSDKIHHHHHHVDKLLYVAMSGAKQNMNSLAVRANNLANANTDGFKSDLEQARSMQAFGEGLPTRVFSMTENPSANFAAGPIKTTGRDLDIAVKGDGWIAVQAVDGGEAYTRSGSLSFDTSGLLRNDRGNPVMGDAGPIVLPLPIEKVEIAQDGTISVRPLGSTAEVIEEVGRIKLVNPGNQNLMRGEDGLFRQLSGVNAPADPNVAVESGAIEGSNVNAVDEMVSLIDLQRQFEMQVKMMKTAEEMDQASSSLMRIS,not soluble
8,SASATAPAAAVPTLASPLEQLRHLAEELRLLLPRVRVGEAQETTEEFNREMFWRRLNEAAVTVSREATTLTIVFSQLPLPSPQETQKFCEQVHAAIKAFIAVYYLLPKDQGITLRKLVRGATLDIVDGMAQLMEVLSVTPTQSPENNDLISYNSVWVACQQMPQIPRDNKAAALLMLTKNVDFVKDAHEEMEQAVEECDPYSGLLNDTEENNSDNHNHEDDVLGFPSNQDLYWSEDDQELIIPCLALVRASKACLKKIRMLVAENGKKDQVAQLDDIVDISDEISPSVDDLALSIYPPMCHLTVRINSAKLVSVLKKALEITKASHVTPQPEDSWIPLLINAIDHCMNRIKELTQSELEL,soluble
